Target: β-haemoglobin (β^h), haem-bound, from human blood (human)
Assay: SEC-MALS

A stoichiometry N of 4 was found for “β-haemoglobin (β^h), haem-bound, from human blood (natural protein)” in this work.
